In patent US6913892 (H LUNDBECK A S, dated 2005):
Where no end group is shown, it is not given here.

T1: human Y1 receptor (human, UniProt P25929 1-384)
T1 construct: Transiently expressed in COS-7 cells; membranes used; also called cloned human Y1 receptor (Larhammar et al., 1992)
T1 sequence: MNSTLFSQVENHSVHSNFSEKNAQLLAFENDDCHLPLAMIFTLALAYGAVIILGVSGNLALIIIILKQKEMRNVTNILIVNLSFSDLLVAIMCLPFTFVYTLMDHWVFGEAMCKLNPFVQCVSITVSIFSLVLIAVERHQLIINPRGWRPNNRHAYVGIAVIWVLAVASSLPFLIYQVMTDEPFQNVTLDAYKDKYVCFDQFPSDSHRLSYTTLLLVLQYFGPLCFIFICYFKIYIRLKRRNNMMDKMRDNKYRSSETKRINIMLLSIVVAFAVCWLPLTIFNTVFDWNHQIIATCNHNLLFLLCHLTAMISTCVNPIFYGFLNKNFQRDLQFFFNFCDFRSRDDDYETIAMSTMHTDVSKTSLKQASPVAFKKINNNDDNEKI

B1: human peptide YY (peptide)
peptide: not shown
modifications: C-terminal amide
notes: mature; also called human PYY; PYY, human
B2: human neuropeptide Y (peptide)
peptide: not shown
modifications: C-terminal amide
B3: porcine PYY13-36 (peptide, UniProt P68005 13-36, looked up)
peptide: SPEELSRYYASLRHYLNLVTRQRY-NH2
notes: range 13-36; also called PYY13-36, porcine
B4: Phe-Met-Arg-Phe-Amide (peptide)
peptide: FMRF-NH2
notes: Tetrapeptide invertebrate neurotransmitter; also called FMRF-amide; FMRFamide

Biological target: T2, human Y4 receptor (human, UniProt P0DQD5 1-375)
T2 sequence (P0DQD5 whole entry): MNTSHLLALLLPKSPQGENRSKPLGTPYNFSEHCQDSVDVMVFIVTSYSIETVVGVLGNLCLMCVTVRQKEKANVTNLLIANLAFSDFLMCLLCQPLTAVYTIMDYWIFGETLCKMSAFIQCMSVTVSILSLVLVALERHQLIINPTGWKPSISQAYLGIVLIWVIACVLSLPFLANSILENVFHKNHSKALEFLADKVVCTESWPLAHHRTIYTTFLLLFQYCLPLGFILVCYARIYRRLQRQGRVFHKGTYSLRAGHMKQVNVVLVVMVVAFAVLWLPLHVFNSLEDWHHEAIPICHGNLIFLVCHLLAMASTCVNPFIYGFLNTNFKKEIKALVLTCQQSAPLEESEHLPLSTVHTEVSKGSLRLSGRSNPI
Test: cell-based or functional assay

Row | EC50, inhibition of forskolin-stimulated cAMP accumulation, LM(tk-) cells | Binder
1 | 580 nM | TPEQMAQYAADLRRYINMLTRPRY-NH2 (peptide, UniProt P01298 42-65, looked up, range 13-36) [PP13-36, human]
2 | 89000 nM | LTRPRY-NH2 (peptide, UniProt P01298 60-65, looked up, range 60-65; also called human PP31-36) [PP31-36, human]
3 | 3500 nM | YINMLTRPRY-NH2 (peptide, UniProt P01298 56-65, looked up, range 27-36) [PP27-36, human]
4 | 0.08 nM | PLEPVYPGDNATPEQMAQYAADLRRYINMLTRPRY-NH2 (peptide, UniProt P01298 31-65, looked up) [PP2-36, human]
5 | 47 nM | B1
6 | 0.09 nM | APLEPVYPGDNATPEQMAQYAADLRRYINMLTRPRY-NH2 (peptide, UniProt P01298 30-65, looked up, mature; also called human PP; PP, human) [human pancreatic polypeptide]
7 | 0.27 nM | APLEPVYPGDNATPEQMAQYAADLRRYINMITRQRY-NH2 (peptide, UniProt P01298 30-65, looked up, mature) [[Ile^31, Gln^34]PP, human]
8 | 20 nM | B2

Biological target: T2, human Y4 receptor
Test: 125I-PYY displacement, COS-7 membranes (as in Table 3)
Description: (§1) Radioligand Binding to Membrane Suspensions: Membrane suspensions were diluted in binding buffer supplemented with 0.1% bovine serum albumin and 0.1% bacitracin to yield an optimal membrane protein concentration: ~0.02 mg/ml for human Y1 receptors, ~0.015 mg/ml for hp25a receptors, and ~0.25 mg/ml for SK-N-Be(2). […] Incubations were terminated by filtration over Whatman GF/C filters (pre-coated with 0.5% polyethyleneimine and air-dried before use). […] Binding data were analyzed using nonlinear regression and statistical techniques available in the GraphPAD InPlot package (San Diego, Calif.). […] Whatman GF/C filters were from Brandel (Gaithersburg, Md.). Bio-Rad Reagent was from Bio-Rad (Hercules, Calif.). Bovine serum albumin and bacitracin were from Sigma (St. Louis, Mo.). All other materials were reagent grade.

Row | Ki | Binder
9 | 39 nM | TPEQMAQYAADLRRYINMLTRPRY-NH2 (peptide, UniProt P01298 42-65, looked up, range 13-36) [PP13-36, human]
10 | > 10000 nM | LTRPRY-NH2 (peptide, UniProt P01298 60-65, looked up, range 60-65; also called human PP31-36) [PP31-36, human]
11 | > 88 nM | YINMLTRPRY-NH2 (peptide, UniProt P01298 56-65, looked up, range 27-36) [PP27-36, human]
12 | 0.09 nM | APLEPVYPGDNATPEQMAQYAADLRRYINMITRQRY-NH2 (peptide, UniProt P01298 30-65, looked up, mature) [[Ile^31, Gln^34]PP, human]

Biological target: T2, human Y4 receptor
Test: 125I-PYY displacement, COS-7 membranes
Description: (§2) Data are representative of at least two independent experiments, with each point measured once or in duplicate.
(§3) Radioligand Binding to Membrane Suspensions: Membrane suspensions were diluted in binding buffer supplemented with 0.1% bovine serum albumin and 0.1% bacitracin to yield an optimal membrane protein concentration: ~0.02 mg/ml for human Y1 receptors, ~0.015 mg/ml for hp25a receptors, and ~0.25 mg/ml for SK-N-Be(2). […] Incubations were terminated by filtration over Whatman GF/C filters (pre-coated with 0.5% polyethyleneimine and air-dried before use). […] Binding data were analyzed using nonlinear regression and statistical techniques available in the GraphPAD InPlot package (San Diego, Calif.).

Row | Ki | Binder
13 | 47 nM | B3
14 | 0.62 nM | B1

Biological target: T1, human Y1 receptor
Test: 125I-PYY displacement, COS-7 membranes
Description: as §2, §3

Row | Ki | Binder
15 | 0.085 nM | B1

Biological target: T2, human Y4 receptor
Test: 125I-PYY displacement, COS-7 membranes
Remark: another data set of the same source

Row | Ki | Binder
16 | 350 nM | LTRPRY-NH2 (peptide, UniProt P01298 60-65, looked up, range 60-65; also called human PP31-36) [PP31-36, human]
17 | 0.18 nM | APLEPMYPGDYATHEQRAQYETQLRRYINTLTRPRY-NH2 (peptide, UniProt P06303 30-65, looked up, mature; also called rat PP) [PP, rat]
18 | 0.05 nM | APLEPEYPGDNATPEQMAQYAAELRRYINMLTRPRY-NH2 (peptide, UniProt P01302 30-65, looked up, mature; also called bovine PP) [PP, bovine]

Biological target: T3, rat Y4 receptor (rat, UniProt Q63447 1-375)
T3 construct: Full-length receptor (375 aa) transiently expressed in COS-7 cells; membranes used; also called rs16b; rat Y4 homolog
T3 sequence (Q63447 whole entry R262P): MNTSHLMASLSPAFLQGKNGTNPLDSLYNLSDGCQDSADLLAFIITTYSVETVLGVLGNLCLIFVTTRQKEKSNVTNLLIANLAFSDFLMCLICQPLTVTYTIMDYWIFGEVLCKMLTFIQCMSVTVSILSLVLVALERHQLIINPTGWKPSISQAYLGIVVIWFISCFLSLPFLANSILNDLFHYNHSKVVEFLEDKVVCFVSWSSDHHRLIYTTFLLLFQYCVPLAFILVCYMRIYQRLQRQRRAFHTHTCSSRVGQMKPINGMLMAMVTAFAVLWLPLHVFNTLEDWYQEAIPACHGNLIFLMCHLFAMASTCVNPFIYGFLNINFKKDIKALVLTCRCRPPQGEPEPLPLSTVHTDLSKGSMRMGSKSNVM
Test: 125I-PYY displacement, COS-7 membranes

Row | Ki | Binder
19 | 20 nM | LTRPRY-NH2 (peptide, UniProt P01298 60-65, looked up, range 60-65; also called human PP31-36) [PP31-36, human]
20 | 0.2 nM | APLEPMYPGDYATHEQRAQYETQLRRYINTLTRPRY-NH2 (peptide, UniProt P06303 30-65, looked up, mature; also called rat PP) [PP, rat]
21 | 0.12 nM | APLEPVYPGDNATPEQMAQYAADLRRYINMLTRPRY-NH2 (peptide, UniProt P01298 30-65, looked up, mature; also called human PP; PP, human) [human pancreatic polypeptide]
22 | 0.15 nM | APLEPEYPGDNATPEQMAQYAAELRRYINMLTRPRY-NH2 (peptide, UniProt P01302 30-65, looked up, mature; also called bovine PP) [PP, bovine]

Biological target: T2, human Y4 receptor
Test: 125I-PYY displacement, COS-7 membranes
Remark: another data set of the same source

Row | Ki | Binder
23 | 0.02 nM | APLEPVYPGDNATPEQMAQYAADLRRYINMLTRPRY-NH2 (peptide, UniProt P01298 30-65, looked up, mature; also called human PP; PP, human) [human pancreatic polypeptide]

Biological target: T2, human Y4 receptor
Test: 125I-PYY displacement, COS-7 membranes
Remark: another data set of the same source
Description: as §1

Row | Ki | Binder
24 | 4000 nM | B4
25 | 39 nM | TPEQMAQYAADLRRYINMLTRPRY-NH2 (peptide, UniProt P01298 42-65, looked up, range 13-36) [PP13-36, human]
26 | 350 nM | LTRPRY-NH2 (peptide, UniProt P01298 60-65, looked up, range 60-65; also called human PP31-36) [PP31-36, human]
27 | 0.18 nM | APLEPMYPGDYATHEQRAQYETQLRRYINTLTRPRY-NH2 (peptide, UniProt P06303 30-65, looked up, mature; also called rat PP) [PP, rat]
28 | 0.09 nM | APLEPVYPGDNATPEQMAQYAADLRRYINMITRQRY-NH2 (peptide, UniProt P01298 30-65, looked up, mature) [[Ile^31, Gln^34]PP, human]
29 | 0.05 nM | APLEPEYPGDNATPEQMAQYAAELRRYINMLTRPRY-NH2 (peptide, UniProt P01302 30-65, looked up, mature; also called bovine PP) [PP, bovine]

Biological target: T1, human Y1 receptor
Test: 125I-PYY displacement, COS-7 membranes
Remark: another data set of the same source
Description: as §1

Row | Ki | Binder
30 | 460 nM | APLEPMYPGDYATHEQRAQYETQLRRYINTLTRPRY-NH2 (peptide, UniProt P06303 30-65, looked up, mature; also called rat PP) [PP, rat]
31 | 0.19 nM | B1
32 | 240 nM | APLEPEYPGDNATPEQMAQYAAELRRYINMLTRPRY-NH2 (peptide, UniProt P01302 30-65, looked up, mature; also called bovine PP) [PP, bovine]
